Experimental data taken from publication PMC3835729.

Substrate: Nc1ncnc2c1ncn2[C@@H]1O[C@H](COP(=O)(O)OC(=O)CCc2c[nH]c3ccccc23)[C@@H](O)[C@H]1O
Test: purified protein
Settings: 20 mM HEPES, 1 mM MgCl2, pH 7.2, 25 °C

B1: human histidine triad nucleotide binding protein 1 (hHint1) (Homo sapiens; H114A) (protein)
chain: ADEIAKAQVARPGGDTIFGKIIRKEIPAKIIFEDDRCLAFHDISPQAPTHFLVIPKKHISQISVAEDDDESLLGHLMIVGKKCAADLGLNKGYRMVVNEGSDGGQSVYHVHLAVLGGRQMHWPPG
For B1, the Km was 0.12 ± 0.01 µM, the kcat was 0.69 ± 0.05 s⁻¹ and the kcat/Km was 6e+06 ± 1e+06 M⁻¹ s⁻¹.
